Laboratory results reported in the DeepSol protein solubility set.

assay: soluble on expression in E. coli; label from the status in PepcDB or PDB records

| Sequence | soluble on expression in E. coli |
| --- | --- |
| MLEDDFGREVSGVRVSLTDRCNFDCVYCHNEGLGDTRGPMEAQDDELTADTIVAFLEVAAEFGVDSVKFTGGEPMLREDLEEIVRRAPDEMEVSMTTNGTFLPGRAPDLVDAGLERVNVSQDALDSEAFAELTQSGAYDRVLEGVEAALDAGLEPVKLNMVVFEPTAGYVPKMVDHVAENPGLQLQLIEYMPELAGHPEWAIDIDRVHDWLEDRADKVEHREMHDRKRYWMHSGEAAVEGDSASTSLAASDGGIRTEPVNNHNSGMVEIVDPVGNENFCANCHRVRLTHDGYLKGCLNRNDDLRDIGTTKESMRAAFRETVDTRVPYYGEYMIETEDGEWEINEEYIDTDGDRAPYEYSE | not soluble |
| MLEELTLERFLSHRSAFSLVIDVRSPHEYLESHLPGALNLPVLSDLEHERVGTLYKESPFEARILGASLICANIASALSWLKDSLHPSQKVLIYCARGGQRSLSLALILSSIGYQIARLIGGYKGYRAHVAASWQVPRKESFLTLVGPTGGGKSELIQSLSWSLDIEGLARHKGSSFGAIEGEQPSTKMFQNLLFERLLGLREEPLVAVEGESKRLGNLILPSPLYERYKSAPKVFIDSPLEARIDRTMQEYASISPAFFEGAMQKIARYMNKEAHKAASLAFWQGDLRRCAELLLVEYYDKVYKMEPCEYTILHTSKESTLKELERIKGEILSSVRE | not soluble |
| MLEFETNIDGLASIKVIGVGGGGNNAVNRMIENEVQGVEYIAVNTDAQALNLSKAEVKMQIGAKLTRGLGAGANPEVGKKAAEESKEQIEEALKGADMVFVTAGMGGGTGTGAAPVIAQIAKDLGALTVGVVTRPFTFEGRKRQLQAAGGISAMKEAVDTLIVIPNDRILEIVDKNTPMLEAFREADNVLRQGVQGISDLIATPGLINLDFADVKTIMSNKGSALMGIGIATGENRAAEAAKKAISSPLLEAAIDGAQGVLMNITGGTNLSLYEVQEAADIVASASDQDVNMIFGSVINENLKDEIVVTVIATGFIEQEKDVTKPQRPSLNQSIKTHNQSVPKRDAKREEPQQQNTVSRHTSQPADDTLDIPTFLRNRNKRG | soluble |
| MLELLYTALLYLIQPLIWIRLWVRGRKAPAYRKRWGERYGFYRHPLKPGGIMLHSVSVGETLAAIPLVRALRHRYPDLPITVTTMTPTGSERVQSAFGKDVQHVYLPYDLPDALNRFLNKVDPKLVLIMETELWPNLIAALHKRKIPLVIANARLSARSAAGYAKLGKFVRRLLRRITLIAAQNEEDGARFVALGAKNNQVTVTGSLKFDISVTPQLAAKAVTLRRQWAPHRPVWIATSTHEGEESVVIAAHQALLQQFPNLLLILVPRHPERFPDAINLVRQAGLSYITRSSGEVPSTSTQVVVGDTMGELMLLYGIADLAFVGGSLVERGGHNPLEAAAHAIPVLMGPHTFNFKDICARLEQASGLITVTDATTLAKEVSSLLTDADYRSFYGRHAVEVLYQNQGALQRLLQLLEPYLPPKTHLEHHHHHH | soluble |
| MLELNFSQTLGTHCLTLNETLPASGITAIFGVSGAGKTSLINAISGLTRPQKGRIALNGRVLHDAENGICLTPEKRRIGYVFQDARLFPHYKVRGNLRYGMAKSMTGQFDKLVSLLGIEALLDRLPGSLSGGEKQRVAIGRALLTAPELLLLDEPLASLDIPRKRELLPYLQRLAREINIPMLYVSHSLDEILHLADKVMVLEDGQVKAFGPLEEVWGSSVMHPWLPKEQQSSILKVSVLEHHPHYAMTALALGDQHLWVNKLNQPLQSTLRIRIQASDVSLVLQPPQQTSIRNVLRAKVANCYDDNGQVEVQLEIGGRTLWARISPWARDELNIKPGLWLYAQVKSVSITA | not soluble |
| MLELVQKGITPEDAITAGKKARKYFELTYYVMPGLGGRERSEQHAVNTARVINKAQPTFVRLRTLTVIEGTPIEKLVGKEITLLGPVEQLEEVRRLVEEIKVETLLLSDHVSNYLFTRSGPIFFGVSGKLPDEKEQMLEQVDDAIKTVKLLEESGERVFNSNDMYRMGLIGL | not soluble |
| MLERQQDSFRFICRTCPFYYQVEGKMERKVFGLQKKQEADILGGDKQWELADQTDTLCPRCSHGKAYFFQMQTRSADEPMSTFYRCVHCGHQWKEN | soluble |
| MLETRATTAKQLVQAPEQPAPQPEVAPPTTEQPAPAPAPGTTPGTENFNTPNATPETTEPRVLVSEVLVRPQSGQLTPELETQVYNVIRTQPGRTTTRSQLQEDINAIFGTGFFSNVQASPEDTPLGVRVSFIVQPNPVLSKVEIQANPGTNVPSVLPQATADEIFRAQYGKILNLRDLQEGIKELTKRYQDQGYVLANVVGAPQVSENGVVTLQVAEGVVENISVRFRNKEGQDVNEQGQPIRGRTQDYIITREVELKPGQVFNRNTVQKDLQRVFGTGLFEDVNVSLDPGTDPTKVNVVVNVVERSLEHHHHHH | soluble |
| MLFGQSVFQSVVERLKQEKEEEGTEPSPPAGHRIAGFSSGFVVDTHIEAPQPANGNLDAYLAFLADPAPPPESQTEPEPEPMPAHLEKTALADVSAELAIQETDTVATLAEKRRAFARLNHPDRVKPQFRHNATLRMTAANLLIDQALRMLRTREHFR | not soluble |
| MLFNLLGKPLKICGCSPRTGWYLDGYCKTDQSDLGNHSICSVVTDTFLKYTKSQGNNLIDPNLLMEFPGLKAGDHWCLCAERWEQARIDGVAPPIIIESTNLSATQVIPLNILKSFAFEII | not soluble |
| MLFRVRSETDSQPPFACLNDIKLFDTDNIGRGINAAILNGTTGDIIEKATFDVTASDEKLMTWLLKVPHASLLVAASFGDVAEHVSRQSRQLFAAFGAQKIDNWRVGNAYAIIGQRGIRRGEAHETVAKFLEENTQQKLFEGCFDLPIAEIGGEVELKIDGPPVHRADESKLAELGAFEADLLQQNKDVEYGGKWKNCGMDRPCNEADTIPVHFFSGEHKDDHPKMCIGGRMLFDKDLNSAGRGLNLAMLEPKTGKVTAVAHFDTYEDESHGLEEWLDAVPTGYIVAVVSFDEASNQLSDMARRIFYEMGSSMIDRLKFRASWYFVGQKGIGAYTPFEDLNIPQGNNWANPIHTSFCLPKSLHKWAGRRDTSSSMTSSASNDVRNLPKRHFCAKYDRHEEFCGAANLDSPIMPRHLSDEQRSSDAIFNVPILVASGLAPDSLRITLESLLNQEGLNTQMVLVTYDKEYSENADLVSLFHVKSVAIQSNGSYNGRKTSWKSEEIAENPMKIDRKPPGGLGNQKFVFLGHQFF | not soluble |
| MLGACVEKPSTLERVKEDGVLRVVTRNSPATYFQDRNGETGFEYELVKRFADDLGVELKIETADNLDDLFDQLGQPKGPVLAAAGLVSSEQRKQQVRFSHPYLEVTPQVIYRNGRSRPTTAQDLVGKHIMVLKGSTHAEQLAELKLKYPGIEYEESDAVEVVDLLRMVDEGQIDLTLVDSNELAMNQVYFPNVRVAFDLGDARSQSWAVAAGDDNSLLNEINSFLDKVEKNGTLQRLKDRYYGHVDVLGYVGAYTFAQHLQQRLPKYEKHFKASAKQEKLDWRLLAAVGYQESMWQAEVTSKTGVRGLMMLTQNTAQAMGVSNRLDPKQSISGGAKYLAYIKEQLDDKIEEPDRTWFALAAYNVGTGHLDDARKLAEKEGLNPNKWLDVKKMLPRLSQKQWYSKTRYGYARGGEPVHFVANIRRYYDILTWVTQPQLEGDQVAEGNLHVPGVNKTKPPEENPPLLEHHHHHH | soluble |
| MLGFNGERLDPASGAFHLGNGYRAYSPALMRFHCPDSLSPFGASGVNPYAYCAGDPANRADPSGHLSWQAWTGIGLAVASLALAAFTAGTSIIASGGIVAALESASAITLAEGGLAVVSDMTAIACGAMEASDPQAAAALSWVSLACGAMGMVHAGYGAVRGIDRKLGAFLQENSRFLGKITRGERDSLGIPLGGGLTKCFRPASEMEGASAGIALGRLHRSSSTPDMEAFLALPAAKRKRIGSGVSGVVYEAGRGWVVKIAIDPLPIETMEREAEIFRAVHGPRSALVAENMLWMKRIPGVPVNTLNLLADEKAEMWQKTLAEVKRLQEMGIHHGDPSWNNLLFDQQTGTVSFIDFGKSRYLDGFAPATLEHHHHHH | soluble |
| MLGSPVAGAQVRVWQLDLDGQRKGREPLREAVTDDRGRFRIEMGAAHGNLLVESAGGETRELWSEEPLGLDPDVPLEAIIPLYIPVQHREIVVSPFTSVAAALVERRPVEPGRFHEAMQGVHALLGGHLGGIDILDAPVTPIDEPATQLTPGVRHGLLLGALSMLAGRMAEETGASVRGLNTMMLTAALREDARDESGLLDGVGPEGAIALGFCVDPPSGADTPLCRLSAQTLRQDLAETLAFHLLGSAQDGTGLSFGDGVVLANEVAQGTETALFGNVQPGNVGDERAPVITPLASPYYEESEDAIAFEDDLTPVHVRSEAARIDLSEVFENDCDREIHKHVDVLGAGDANPLRWRFAVKDDLAGFDVEDLLVQLRVPGVLAARPLAVTSVELPEGETAPGRVFEVFARERDAEELARVEGRYNIEIAATDRLGNTSPVLRGCWRHVPRAAPLWAGSFNAASGPGSFDERRLESNNLAPVLRGDQAPVLARLEVQNNTDEDVFLTLRADDIVGRYSATWTRSRVLLSEEEGMSDCLETGECFSAPPPDVVDEIIGLQPIPDSLVTLRVFDLATGVTPKCPNCRPNEVQIAAGGHFEVQAVVSNLAFLVPPSVNRTQIQEIQVGPIGAQVQLTGVDRRGYVHCEDTVPGSSLCRVRLSYQLFHALARATLQVDSLTISAVSSPLSTLAPRSPQPPLEGDNFTFSLPVSTAVTWTTEDASIPVSQ | not soluble |
| MLGTIKPNYWIRKLSTKTSYGYRIDARAYVKVVRKTYHFLWKDSEEIVIFNPNADVGGLLYIGGLEHHHHHH | not soluble |
| MLHFYQAVAQLMEHIRGAKAHDVRFTQPLADKPPFALIDWLDAQPIFPKFYWQSRDTREEVVALGQVYTFTDPAPAYAILGDEQRVWGGRSFDGHTAKNPRCMSSFFFLPQIELIRRDEQWLLAVNINNEPQRTLTALQKLLVEVPTLRSMTAHVTRVEHTPTAANWHDLVEKVLAGITEKQFKKVVLARKTTLTLDAPLSAAQLLKASHAQNHHSFHFLLALDSRHSFMGSTPERLYLRHGQNLETEALAGTIGRGANATQDMELAHWLTHDSKNLNENQLVVEDIIESLAPHAEQIHTQREAQLVRLRKVQHLKKRIDAQLKSGVNGVQLLGVLQPTAAVAGLPRQAALAFIAENEPFARGWYAGSMGYFSHAQAEFCVAIRSALVVDKQVQLYAGAGIVPGSIAEHEWQELDKKLSTLLSLITDRLPLGVAS | not soluble |
| MLHLVLYQPEIPQNAGNVARTAAALGWPLHLIRPLGFLLSSPKLKRAGLDYWPHVDLRLHDSFAAFLEALPRGARVFAFSARGEASLYEARFREGDYLLFGPESRGLPEEVLARFPTLKIPMPGPVRSLNLAVAVGVAAYEAYRQLTGR | soluble |
| MLIYEGHIDKLIRRGQEKGLDIYNLIRTAVFNPVEHYGLNVGLLREGDPADFIIVDNLKSFNILSTFIDGECVYENGKVLFPLEHHHHHH | not soluble |
| MLKDEYGRVVTNLRIAVTKKCNLRCFYCHKEGESNPGEEISAERIVEIARAFKELGVRKLKITGGEPLLRKDLPDIILNLPEFEEISMTTNGILLEKYAEELRECGLSRVNVSLDTLDAEKYRWITGGGEVQKVVNGIEKACEVGLTPVKINMLVLGGVNDNEVDELLEFTNSFNRGNTKAILQVIELVPFPGFEKYFFDISTIEEKYARMATQRRVRAMHRRTQYFTPKGVIEFVKPMDNTAFCMHCNRMRVTSDGKLKPCLLRNETITIDGKHGEELARAIIETVRKREPYFKG | not soluble |
| MLKKRFYILLFFCLLLGGNVNSSTVDKGDNNAPFENKRTETDYLPIADPFVMLYNNKYYAYGTGGTVNEGFACFSSDDLKNWKRERQALSADDSYGKWGFWAPEVYYIQSKKKFYMFYSVEEHICVATSDSPVGPFRQESKQPIWEEKSIDTSLFIDDDGTPYLYFVRFTDGNVIWVAQMTDDLMKIKKETLSECIKAEEPWELLQAKVAEGPSVLKKKGMYYLIYSANHYQNKGYGVGYATSKSPMGPWTKYDKNPLLQGDESTGLVGTGHGAPFQCKDGSWKYIFHAHWNKEKIHPRTSYFKDFTISKQGVVSITGKVIKPKVIK | not soluble |
